Data as given in patent US5773001 (American Cyanamid Company, dated 1998).
Where two headings read alike, the source gives them in different places.

Assays:
CD33 antigen (human) [1] = target: CD33 antigen (human) (UniProt P20138); assay: competition with 125I-labelled native antibody on HEL 92.1.7 cells; IC50 (reference) / IC50 (sample)
CD33 antigen (human) [2] = target: CD33 antigen (human) (UniProt P20138)
[3] = target: T1, glycoprotein antigen present on colon cancer cells, recognized by A33 (Homo sapiens (Human)) (UniProt Q99795); assay: competition with 125I-labelled native antibody on COLO 205 cells; IC50 (reference) / IC50 (sample)
T1 sequence: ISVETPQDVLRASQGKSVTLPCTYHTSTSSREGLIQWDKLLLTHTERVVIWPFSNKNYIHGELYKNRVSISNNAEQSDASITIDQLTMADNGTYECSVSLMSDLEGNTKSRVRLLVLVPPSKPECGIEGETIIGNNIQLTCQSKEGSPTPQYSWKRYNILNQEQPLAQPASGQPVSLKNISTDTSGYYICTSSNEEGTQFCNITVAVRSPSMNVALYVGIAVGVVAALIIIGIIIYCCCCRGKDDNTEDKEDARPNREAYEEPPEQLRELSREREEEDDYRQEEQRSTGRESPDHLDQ

[4] = target: T1, glycoprotein antigen present on colon cancer cells, recognized by A33 (Homo sapiens (Human))
CD33 antigen (human) [5] = target: CD33 antigen (human) (UniProt P20138); remark: listed apart in the source
CD33 antigen (human) [6] = target: CD33 antigen (human) (UniProt P20138); remark: listed apart in the source
CD33 antigen (human) [7] = target: CD33 antigen (human) (UniProt P20138); remark: listed apart in the source
[8] = target: T1, glycoprotein antigen present on colon cancer cells, recognized by A33 (Homo sapiens (Human)); remark: listed apart in the source
CD33 antigen (human) [9] = target: CD33 antigen (human) (UniProt P20138); remark: listed apart in the source
CD33 antigen (human) [10] = target: CD33 antigen (human) (UniProt P20138); remark: listed apart in the source
CD33 antigen (human) [11] = target: CD33 antigen (human) (UniProt P20138); remark: listed apart in the source
CD33 antigen (human) [12] = target: CD33 antigen (human) (UniProt P20138); remark: listed apart in the source
CD33 antigen (human) [13] = target: CD33 antigen (human) (UniProt P20138); remark: listed apart in the source
CD33 antigen (human) [14] = target: CD33 antigen (human) (UniProt P20138); remark: listed apart in the source
CD33 antigen (human) [15] = target: CD33 antigen (human) (UniProt P20138); remark: listed apart in the source
CD33 antigen (human) [16] = target: CD33 antigen (human) (UniProt P20138); remark: listed apart in the source
CD33 antigen (human) [17] = target: CD33 antigen (human) (UniProt P20138); assay: competition with 125I-labelled native antibody on HEL 92.1.7 cells; IC50 (reference) / IC50 (sample); remark: listed apart in the source
CD33 antigen (human) [18] = target: CD33 antigen (human) (UniProt P20138); remark: listed apart in the source
CD33 antigen (human) [19] = target: CD33 antigen (human) (UniProt P20138); remark: listed apart in the source
CD33 antigen (human) [20] = target: CD33 antigen (human) (UniProt P20138); remark: listed apart in the source
CD33 antigen (human) [21] = target: CD33 antigen (human) (UniProt P20138); remark: listed apart in the source
CD33 antigen (human) [22] = target: CD33 antigen (human) (UniProt P20138); remark: listed apart in the source
CD33 antigen (human) [23] = target: CD33 antigen (human) (UniProt P20138); remark: listed apart in the source
CD33 antigen (human) [24] = target: CD33 antigen (human) (UniProt P20138); remark: listed apart in the source
CD33 antigen (human) [25] = target: CD33 antigen (human) (UniProt P20138); remark: listed apart in the source

Conjugate of 4-(4-formyl-2-methoxyphenoxy)butanoic acid (11) condensed with Calicheamicin N-acetyl gamma dimethyl hydrazide and m-P67.6 (antibody)
Rel. Affinity (CD33 antigen (human) [1]): 0.22
In vitro IC50 (3H-thymidine incorporation) (CD33 antigen (human) [2]): 0.13 ng/mL

Conjugate of 4-(4-acetylphenoxy)butanoic acid (7) condensed with calicheamicin gamma dimethyl hydrazide and h-A33 (antibody)
Rel. Affinity [3]: 0.91
In vitro IC50 (3H-thymidine incorporation) [4]: 3.55 ng/mL

Conjugate of 4-formylbenzenepropanoic acid (12) condensed with Calicheamicin N-acetyl gamma dimethyl hydrazide and m-P67.6 (antibody)
Rel. Affinity (CD33 antigen (human) [1]): 0.73
In vitro IC50 (3H-thymidine incorporation) (CD33 antigen (human) [5]): 0.12 ng/mL

Conjugate of 4-(4-acetyl-2,6-dimethoxyphenoxy)butanoic acid (14) condensed with Calicheamicin N-acetyl gamma dimethyl hydrazide and m-P67.6 (antibody)
Rel. Affinity (CD33 antigen (human) [1]): 1.18
In vitro IC50 (3H-thymidine incorporation) (CD33 antigen (human) [6]): 0.015 ng/mL

Conjugate of 4-4-(3-oxopropyl)phenoxy!butanoic acid (18) condensed with Calicheamicin N-acetyl gamma dimethyl hydrazide and m-P67.6 (antibody)
Rel. Affinity (CD33 antigen (human) [1]): 1.21
In vitro IC50 (3H-thymidine incorporation) (CD33 antigen (human) [7]): 0.62 ng/mL

Conjugate of 4-(4-acetylphenoxy)butanoic acid (7) condensed with calicheamicin N-acetyl gamma dimethyl hydrazide and h-A33 (antibody)
Rel. Affinity [3]: 1.13
In vitro IC50 (3H-thymidine incorporation) [8]: 4.03 ng/mL

Conjugate of 4-(4-formylphenoxy)butanoic acid (9) condensed with Calicheamicin N-acetyl gamma dimethyl hydrazide and m-P67.6 (antibody)
Rel. Affinity (CD33 antigen (human) [1]): 0.7
In vitro IC50 (3H-thymidine incorporation) (CD33 antigen (human) [9]): 0.087 ng/mL

Conjugate of 4-(4-acetyl-2-methoxyphenoxy)butanoic acid (15) condensed with Calicheamicin N-acetyl gamma dimethyl hydrazide and m-P67.6 (antibody)
In vitro IC50 (3H-thymidine incorporation) (CD33 antigen (human) [10]): 0.029 ng/mL
Rel. Affinity (CD33 antigen (human) [1]): 0.8

Conjugate of 4-(2,3-Dimethoxy-5-formylphenoxy)butanoic acid (13) condensed with Calicheamicin N-acetyl gamma dimethyl hydrazide and m-P67.6 (antibody)
Rel. Affinity (CD33 antigen (human) [1]): 1.08
In vitro IC50 (3H-thymidine incorporation) (CD33 antigen (human) [11]): 0.062 ng/mL

Conjugate of 4-(4-acetyl-2-methylphenoxy)butanoic acid (10) condensed with Calicheamicin N-acetyl gamma dimethyl hydrazide and m-P67.6 (antibody)
Rel. Affinity (CD33 antigen (human) [1]): 1.07
In vitro IC50 (3H-thymidine incorporation) (CD33 antigen (human) [12]): 0.041 ng/mL

Conjugate of 4-(2-acetyl-1-naphthalenyl)oxy! butanoic acid (20) condensed with Calicheamicin N-acetyl gamma dimethyl hydrazide and m-P67.6 (antibody)
Rel. Affinity (CD33 antigen (human) [1]): 0.66
In vitro IC50 (3H-thymidine incorporation) (CD33 antigen (human) [13]): 0.0067 ng/mL

Conjugate of 4-(2-acetyl-5-methoxyphenoxy!butanoic acid (17) condensed with Calicheamicin N-acetyl gamma dimethyl hydrazide and m-P67.6 (antibody)
Rel. Affinity (CD33 antigen (human) [1]): 1.2
In vitro IC50 (3H-thymidine incorporation) (CD33 antigen (human) [14]): 0.0098 ng/mL

Conjugate of 4-(3-formylphenoxy)butanoic acid (8) condensed with Calicheamicin N-acetyl gamma dimethyl hydrazide and m-P67.6 (antibody)
Rel. Affinity (CD33 antigen (human) [1]): 1
In vitro IC50 (3H-thymidine incorporation) (CD33 antigen (human) [15]): 0.38 ng/mL

Conjugate of 4-4-(3-oxobutyl)phenoxy!butanoic acid (16) condensed with Calicheamicin N-acetyl gamma dimethyl hydrazide and m-P67.6 (antibody)
In vitro IC50 (3H-thymidine incorporation) (CD33 antigen (human) [16]): 9 ng/mL

B1: Conjugate of 4-(4-acetyl-2-methylphenoxy)butanoic acid (10) condensed with Calicheamicin N-acetyl gamma dimethyl hydrazide and h-P67.6 (antibody, V domains shown)
VH: EVQLVQSGAEVKKPGSSVKVSCKASGYTITDSNIHWVRQAPGQSLEWIGYIYPYNGGTDYNQKFKNRATLTVDNPTNTAYMELSSLRSEDTDFYYCVNGNPWLAYWGQGTLVTVSS
VL: DIQLTQSPSTLSASVGDRVTITCRASESLDNYGIRFLTWFQQKPGKAPKLLMYAASNQGSGVPSRFSGSGSGTEFTLTISSLQPDDFATYYCQQTKEVPWSFGQGTKVEVKR
modifications: drug-linker amide on lysine side chains, sites not stated; drug-linker amide on lysine side chains, sites not stated
Rel. Affinity (CD33 antigen (human) [17]): 1.16
In vitro IC50 (3H-thymidine incorporation) (CD33 antigen (human) [18]): 0.45 ng/mL

B2: Conjugate of 4-(2,3-dimethoxy-5-formylphenoxy)butanoic acid (13) condensed with Calicheamicin N-acetyl gamma dimethyl hydrazide and h-P67.6 (antibody, V domains shown)
VH: EVQLVQSGAEVKKPGSSVKVSCKASGYTITDSNIHWVRQAPGQSLEWIGYIYPYNGGTDYNQKFKNRATLTVDNPTNTAYMELSSLRSEDTDFYYCVNGNPWLAYWGQGTLVTVSS
VL: DIQLTQSPSTLSASVGDRVTITCRASESLDNYGIRFLTWFQQKPGKAPKLLMYAASNQGSGVPSRFSGSGSGTEFTLTISSLQPDDFATYYCQQTKEVPWSFGQGTKVEVKR
modifications: drug-linker amide on lysine side chains, sites not stated; drug-linker amide on lysine side chains, sites not stated
In vitro IC50 (3H-thymidine incorporation) (CD33 antigen (human) [19]): 1.1 ng/mL
Rel. Affinity (CD33 antigen (human) [17]): 1.16

B3: Conjugate of 4-(4-formyl-2-methoxyphenoxy)butanoic acid (11) condensed with Calicheamicin N-acetyl gamma dimethyl hydrazide and h-P67.6 (antibody, V domains shown)
VH: EVQLVQSGAEVKKPGSSVKVSCKASGYTITDSNIHWVRQAPGQSLEWIGYIYPYNGGTDYNQKFKNRATLTVDNPTNTAYMELSSLRSEDTDFYYCVNGNPWLAYWGQGTLVTVSS
VL: DIQLTQSPSTLSASVGDRVTITCRASESLDNYGIRFLTWFQQKPGKAPKLLMYAASNQGSGVPSRFSGSGSGTEFTLTISSLQPDDFATYYCQQTKEVPWSFGQGTKVEVKR
modifications: drug-linker amide on lysine side chains, sites not stated; drug-linker amide on lysine side chains, sites not stated
In vitro IC50 (3H-thymidine incorporation) (CD33 antigen (human) [20]): 3.8 ng/mL
Rel. Affinity (CD33 antigen (human) [17]): 0.73

B4: Conjugate of 4-(4-acetyl-2,6-dimethoxyphenoxy)butanoic acid (14) condensed with Calicheamicin N-acetyl gamma dimethyl hydrazide and h-P67.6 (antibody, V domains shown)
VH: EVQLVQSGAEVKKPGSSVKVSCKASGYTITDSNIHWVRQAPGQSLEWIGYIYPYNGGTDYNQKFKNRATLTVDNPTNTAYMELSSLRSEDTDFYYCVNGNPWLAYWGQGTLVTVSS
VL: DIQLTQSPSTLSASVGDRVTITCRASESLDNYGIRFLTWFQQKPGKAPKLLMYAASNQGSGVPSRFSGSGSGTEFTLTISSLQPDDFATYYCQQTKEVPWSFGQGTKVEVKR
modifications: drug-linker amide on lysine side chains, sites not stated; drug-linker amide on lysine side chains, sites not stated
In vitro IC50 (3H-thymidine incorporation) (CD33 antigen (human) [21]): 0.24 ng/mL
Rel. Affinity (CD33 antigen (human) [17]): 1.07

B5: Conjugate of 4-4-(3-oxopropyl)phenoxy!butanoic acid (18) condensed with Calicheamicin N-acetyl gamma dimethyl hydrazide and h-P67.6 (antibody, V domains shown)
VH: EVQLVQSGAEVKKPGSSVKVSCKASGYTITDSNIHWVRQAPGQSLEWIGYIYPYNGGTDYNQKFKNRATLTVDNPTNTAYMELSSLRSEDTDFYYCVNGNPWLAYWGQGTLVTVSS
VL: DIQLTQSPSTLSASVGDRVTITCRASESLDNYGIRFLTWFQQKPGKAPKLLMYAASNQGSGVPSRFSGSGSGTEFTLTISSLQPDDFATYYCQQTKEVPWSFGQGTKVEVKR
modifications: drug-linker amide on lysine side chains, sites not stated; drug-linker amide on lysine side chains, sites not stated
In vitro IC50 (3H-thymidine incorporation) (CD33 antigen (human) [22]): 1.1 ng/mL
Rel. Affinity (CD33 antigen (human) [17]): 0.8

B6: Conjugate of 4-(2-acetyl-5-methoxyphenoxy!butanoic acid (17) condensed with Calicheamicin N-acetyl gamma dimethyl hydrazide and h-P67.6 (antibody, V domains shown)
VH: EVQLVQSGAEVKKPGSSVKVSCKASGYTITDSNIHWVRQAPGQSLEWIGYIYPYNGGTDYNQKFKNRATLTVDNPTNTAYMELSSLRSEDTDFYYCVNGNPWLAYWGQGTLVTVSS
VL: DIQLTQSPSTLSASVGDRVTITCRASESLDNYGIRFLTWFQQKPGKAPKLLMYAASNQGSGVPSRFSGSGSGTEFTLTISSLQPDDFATYYCQQTKEVPWSFGQGTKVEVKR
modifications: drug-linker amide on lysine side chains, sites not stated; drug-linker amide on lysine side chains, sites not stated
In vitro IC50 (3H-thymidine incorporation) (CD33 antigen (human) [23]): 0.088 ng/mL
Rel. Affinity (CD33 antigen (human) [17]): 0.98

B7: Conjugate of 4-formylbenzenepropanoic acid (12) condensed with Calicheamicin N-acetyl gamma dimethyl hydrazide and h-P67.6 (antibody, V domains shown)
VH: EVQLVQSGAEVKKPGSSVKVSCKASGYTITDSNIHWVRQAPGQSLEWIGYIYPYNGGTDYNQKFKNRATLTVDNPTNTAYMELSSLRSEDTDFYYCVNGNPWLAYWGQGTLVTVSS
VL: DIQLTQSPSTLSASVGDRVTITCRASESLDNYGIRFLTWFQQKPGKAPKLLMYAASNQGSGVPSRFSGSGSGTEFTLTISSLQPDDFATYYCQQTKEVPWSFGQGTKVEVKR
modifications: drug-linker amide on lysine side chains, sites not stated; drug-linker amide on lysine side chains, sites not stated
In vitro IC50 (3H-thymidine incorporation) (CD33 antigen (human) [24]): 1 ng/mL
Rel. Affinity (CD33 antigen (human) [17]): 0.73

B8: Conjugate of 4-(4-acetyl-2-methoxyphenoxy)butanoic acid (15) condensed with Calicheamicin N-acetyl gamma dimethyl hydrazide and h-P67.6 (antibody, V domains shown)
VH: EVQLVQSGAEVKKPGSSVKVSCKASGYTITDSNIHWVRQAPGQSLEWIGYIYPYNGGTDYNQKFKNRATLTVDNPTNTAYMELSSLRSEDTDFYYCVNGNPWLAYWGQGTLVTVSS
VL: DIQLTQSPSTLSASVGDRVTITCRASESLDNYGIRFLTWFQQKPGKAPKLLMYAASNQGSGVPSRFSGSGSGTEFTLTISSLQPDDFATYYCQQTKEVPWSFGQGTKVEVKR
modifications: drug-linker amide on lysine side chains, sites not stated; drug-linker amide on lysine side chains, sites not stated
In vitro IC50 (3H-thymidine incorporation) (CD33 antigen (human) [25]): 0.23 ng/mL
Rel. Affinity (CD33 antigen (human) [17]): 0.78
